Data on two molecules can be found in patent publication US11976099B2, “Compositions and methods for treatment of bone associated diseases” (THE NATIONAL INSTITUTE FOR BIOTECHNOLOGY IN THE NEGEV LTD., priority 2016, dated 2024).

One assay deals with αvβ3 integrin (Homo sapiens, UniProt P05106+P06756). The experiment in a line: SPR binding of purified proteins to αvβ3 integrin. To be noted: proteins immobilized; integrin 0-200 nM; equilibrium. As for the experimental part:
(§1) Determination of binding of the soluble purified proteins (M-CSFM and M-CSFRGD variants) to c-FMS and αvβ3 integrin was performed on a ProteOn XPR36 (Bio-Rad, USA). […] Unbound esters were deactivated with 1 M ethanolamine HCl at pH 8.5, and the temperature was set at 25° C. Then, the chip was rotated, and the human c-FMS soluble proteins (Sino Biological, China) were allowed to flow over the chip at 6 different concentrations (0, 12.5, 25, 50, 100 and 200 nM) at a flow rate of 50 μl/min for 490 s, followed by dissociation for 600 s in PBS+0.005% Tween (PBST). For determining αvβ3 integrin binding, the chip was regenerated using 50 mM NaOH at a flow rate of 100 μl/min and analyzed again for c-FMS binding to make sure that the chip had been regenerated. After making sure the chip is regenerated, and different concentrations of […] proteins (0, 12.5, 25, 50, 100 and 200 nM) were allowed to flow over the chip. The interactions obtained were normalized to the initial protein binding RUs to the chip surface. Then, for each concentration, the KD was obtained from the equilibrium binding phase of the sensorgram. To determine the αvβ3 integrin specificity for each M-CSFRGD variant, a new chip was loaded with different RGD binding integrins, as follows: 8.5 μg of α3β1, 8.5 μg of α4β7, 6 μg of α5β1, 8.5 μg of αvβ5, and 8.5 μg of αvβ3 integrin and 3 μg of BSA as a negative control. […]

In the next assay the target is αvβ5 integrin (Homo sapiens, UniProt P06756+P18084, DEL720-799). The experiment in a line: SPR integrin specificity, immobilized αvβ5. It counts as binding. To be noted: variants at 1 μM. As for the experimental part: as §1
αvβ5 integrin, sequence (P06756 31-992 limits assumed, stated change not applied): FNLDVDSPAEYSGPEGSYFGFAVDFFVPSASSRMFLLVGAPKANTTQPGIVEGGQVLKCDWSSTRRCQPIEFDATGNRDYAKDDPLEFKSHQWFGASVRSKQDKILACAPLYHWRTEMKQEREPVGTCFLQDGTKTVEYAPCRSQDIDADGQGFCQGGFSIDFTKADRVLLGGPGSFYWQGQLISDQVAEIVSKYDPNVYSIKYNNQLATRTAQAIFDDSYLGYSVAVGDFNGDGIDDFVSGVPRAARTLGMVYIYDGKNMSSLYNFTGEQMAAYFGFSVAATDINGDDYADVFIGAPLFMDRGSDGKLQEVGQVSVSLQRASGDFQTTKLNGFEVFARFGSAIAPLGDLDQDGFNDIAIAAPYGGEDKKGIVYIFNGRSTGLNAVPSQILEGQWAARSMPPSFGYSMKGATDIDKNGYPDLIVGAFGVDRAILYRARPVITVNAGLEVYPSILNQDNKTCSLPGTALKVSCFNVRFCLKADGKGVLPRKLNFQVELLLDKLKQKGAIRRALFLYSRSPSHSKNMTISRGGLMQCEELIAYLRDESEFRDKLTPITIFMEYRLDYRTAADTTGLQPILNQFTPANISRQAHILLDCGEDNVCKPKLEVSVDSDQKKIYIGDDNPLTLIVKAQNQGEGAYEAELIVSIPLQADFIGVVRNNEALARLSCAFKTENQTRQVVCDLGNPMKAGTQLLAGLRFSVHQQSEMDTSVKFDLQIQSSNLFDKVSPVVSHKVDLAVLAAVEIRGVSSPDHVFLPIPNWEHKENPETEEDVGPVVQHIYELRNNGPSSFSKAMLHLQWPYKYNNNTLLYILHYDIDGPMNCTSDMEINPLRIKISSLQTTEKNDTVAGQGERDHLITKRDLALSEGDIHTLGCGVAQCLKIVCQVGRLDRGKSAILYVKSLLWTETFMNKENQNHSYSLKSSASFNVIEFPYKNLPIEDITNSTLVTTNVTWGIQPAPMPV
αvβ5 integrin, sequence (P18084 24-719 limits assumed, stated change not applied): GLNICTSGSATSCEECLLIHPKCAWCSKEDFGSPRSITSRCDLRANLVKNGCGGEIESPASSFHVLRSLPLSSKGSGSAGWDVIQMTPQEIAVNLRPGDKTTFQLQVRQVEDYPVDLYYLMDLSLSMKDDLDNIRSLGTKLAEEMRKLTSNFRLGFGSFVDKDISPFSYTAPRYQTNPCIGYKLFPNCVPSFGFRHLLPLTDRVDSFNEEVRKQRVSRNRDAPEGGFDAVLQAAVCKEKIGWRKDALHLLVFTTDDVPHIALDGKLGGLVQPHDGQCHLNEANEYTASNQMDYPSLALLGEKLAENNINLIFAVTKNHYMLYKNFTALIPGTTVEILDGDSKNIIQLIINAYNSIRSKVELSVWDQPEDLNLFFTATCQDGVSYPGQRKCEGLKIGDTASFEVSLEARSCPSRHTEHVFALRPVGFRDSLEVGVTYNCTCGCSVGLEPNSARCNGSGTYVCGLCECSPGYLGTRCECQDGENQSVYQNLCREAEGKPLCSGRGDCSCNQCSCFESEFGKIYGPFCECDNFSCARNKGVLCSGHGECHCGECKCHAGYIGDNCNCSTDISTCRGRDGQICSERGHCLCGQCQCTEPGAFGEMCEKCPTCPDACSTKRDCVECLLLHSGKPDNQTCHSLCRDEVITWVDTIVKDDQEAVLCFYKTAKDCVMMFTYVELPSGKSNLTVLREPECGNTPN
The test system of a further assay is mature osteoclasts. Put plainly: Actin ring formation in mature osteoclasts. It counts as cell-based, mouse. The following applies: inhibitors 5 μM added to mature osteoclasts for 24 h; F-actin staining. As for the experimental part: FIG. 23 are example pictures showing Actin ring formation in mature osteoclasts incubated with M-CSFRGD variants. Murine BMMs were allowed to differentiate into osteoclasts in the presence of M-CSF and RANKL for 72 h. Then, the cells were incubated for additional 24 h without (positive control) or with inhibitors (5 μM) followed by fixation and staining for F-actin and nuclei. Cells were able to form a solid actin ring (white arrowheads), scattered actin ring (white arrows) or amorphous actin distribution (barbed arrowheads). Pictures are representatives of 35 images acquired from five different wells per sample.
For a mature osteoclast to resorb bone properly, it must form unique structure termed “sealing zone”; this structure consists of an actin ring made from a dense actin mesh connected by adhesion complexes called podosomes. The formation of the actin ring involves several stages: at the beginning, podosomes are formed throughout the cell in a scattered manner, then groups of podosomes form small actin structures named belts and upon osteoclast maturation, the belts are moving to the cell periphery, cluster, and form the actin ring. Podosomes contain high levels of αvβ3 integrin which is essential for the formation of a proper actin ring with condensed podosome network. […]

Assay [1] concerns CTX-I (carboxy-terminal collagen crosslinks). Put plainly: CTX-I serum ELISA in ovariectomized mice (bone resorption). More on the design: CTX-I serum-concentration: unit not given here. The following applies: for CTX-I serum-concentration: 4 days, individual animals, listed as M-CSF 5.6. The class given is in vivo, C57 Rcc mice. As for the experimental part: In order to assess the effect of M-CSF variant on bone resorption, 10 weeks old C57 Rcc mice were ovariectomized resulting in a decrease in estrogen secretion similar to what occurs in osteoporosis. Two weeks post-surgery the mice were treated with M-CSF5.6 variant in three concentrations-0.1 mg/kg, 0.5 mg/kg and 15 mg/kg, in order to test the effect on bone resorption and to find the optimal dosage. For a period of 4 days, 0.1 and 0.5 mg/kg M-CSF5.6 treated mice received subcutaneous injections twice a day, while 15 mg/kg M-CSF5.6 treated mice received a daily subcutaneous injection. Mice were sacrificed 18-24 hours after the final injection. The amounts of type I collagen fragments in the blood were measured using CTX-I (carboxy-terminal collagen crosslinks) ELISA.
Animals were randomly divided into 2 control groups (SHAM, PBS) and 4 treatment groups (0.1, 0.5 and 15 mg/kg M-CSF5.6 and 0.1 mg/kg Alendronate as positive control). Except for the SHAM group, all animals were ovariectomized. *, ^, + represent a Haemolytic-serum sample, an unsuccessful ovariectomy procedure (as determined post mortem) and an outlier, respectively. CTX-I serum-concentration values of mice with unsuccessful ovariectomy were excluded from the analysis.
For orientation: An ELISA detects its analyte on a solid surface through an enzyme-linked reagent.

“And” between values parts separate entries of the source, which are not always exact repeats. Identical values can stand only once.

αvβ3 integrin, sequence (P06756 31-992 limits assumed): as the sequence (P06756 31-992 limits assumed, stated change not applied) above
αvβ3 integrin, sequence (P05106 27-718 limits assumed): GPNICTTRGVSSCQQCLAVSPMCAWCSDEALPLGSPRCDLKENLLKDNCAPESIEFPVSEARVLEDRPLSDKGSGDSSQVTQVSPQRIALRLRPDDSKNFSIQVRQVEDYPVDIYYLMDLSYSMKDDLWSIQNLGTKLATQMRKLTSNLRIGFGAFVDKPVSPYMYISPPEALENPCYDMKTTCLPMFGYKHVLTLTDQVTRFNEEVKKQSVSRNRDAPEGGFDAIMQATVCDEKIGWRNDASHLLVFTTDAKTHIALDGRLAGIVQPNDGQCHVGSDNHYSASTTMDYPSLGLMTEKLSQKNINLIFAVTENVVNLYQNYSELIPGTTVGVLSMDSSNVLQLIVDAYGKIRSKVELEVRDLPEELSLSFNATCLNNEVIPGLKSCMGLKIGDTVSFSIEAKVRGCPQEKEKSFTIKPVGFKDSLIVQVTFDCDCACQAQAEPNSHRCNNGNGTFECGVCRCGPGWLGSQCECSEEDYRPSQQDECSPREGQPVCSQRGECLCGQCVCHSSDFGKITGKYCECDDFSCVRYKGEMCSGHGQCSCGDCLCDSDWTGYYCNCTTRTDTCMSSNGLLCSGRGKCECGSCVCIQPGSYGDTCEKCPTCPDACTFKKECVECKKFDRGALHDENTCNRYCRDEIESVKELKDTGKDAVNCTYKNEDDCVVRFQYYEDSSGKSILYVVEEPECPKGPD

B1: M-CSFM: 158 amino acid M-CSF with cysteine at position 31 replaced by serine (SEQ ID NO: 2) (protein)
chain: EEVSEYCSHMIGSGHLQSLQRLIDSQMETSSQITFEFVDQEQLKDPVCYLKKAFLLVQDIMEDTMRFRDNTPNAIAIVQLQELSLRLKSCFTKDYEEHDKACVRTFYETPLQLLEKVKNVFNETKNLLDKDWNIFSKNCNNSFAECSSQGHERQSEGS
As to B1, in the assay with αvβ3 integrin, the “KD to αvβ3 integrin” value is “did not bind”.

B2: 5.6: bispecific M-CSFRGD variant from sort five; M-CSFM loop replaced by XXXRGDXXX motif; binds c-FMS and αvβ3 integrin (protein)
chain: EEVSEYCSHMIGSGHLQSLQRLIDTYPRGDMCSITFEFVDQEQLKDPVCYLKKAFLLVQDIMEDTMRFRDNTPNAIAIVQLQELSLRLKSCFTKDYEEHDKACVRTFYETPLQLLEKVKNVFNETKNLLDKDWNIFSKNCNNSFAECSSQGHERQSEGS
modifications: left off: small tags and cut ends
Regarding B2, in the assay with αvβ5 integrin, the “rank order of αvβ5 integrin binding” value was 4.24 is the best αvβ5 integrin followed by 4.22 and 5.6. In addition, the actin ring formation result with mature osteoclasts is “showed the same phenotype as cRGD and M-CSFαvβ3”. Also, the CTX-I serum-concentration in assay [1] (0.1 mg/kg s.c. twice a day, * haemolytic) is 58.19 and 44.06 and 130.4* and 195.2* and 53.32 and 46.69; in assay [1] (0.5 mg/kg s.c. twice a day, * haemolytic, ^ unsuccessful ovariectomy, + outlier) it was 53.33 and 209.7+ and 47.65*^ and 64.67 and 70.37* and 83.09*; in assay [1] (15 mg/kg s.c. daily, ^ unsuccessful ovariectomy, + outlier) it was 33.94 and 33.49 and 214.7^+ and 46.82 and 30.85 and 40.68. The “decrease in CTX-I levels compared to the PBS treated animals” value in assay [1] (15 mg/kg) is recorded as approximately 2 fold. Moreover, in assay [1] (0.1 and 0.5 mg/kg, hemolytic samples included), the “effect on CTX-I levels at lower doses” value is on record as “ineffective”.
